Laboratory results taken from the nanobody polyreactivity screen of Harvey et al. (2022).

Assay: yeast display, Sf9 membrane polyspecificity reagent, FACS + sequencing; frameworks hold sequencing errors
In short: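 After 36–48 hours of galactose induction, yeast (Saccharomyces cerevisiae BJ5465) displaying a synthetic nanobody library were stained at 4 °C for 1 hour with 10% biotinylated, detergent-solubilized Sf9 membrane reagent. Streptavidin microbeads enriched the stained cells before FACS sorting into low and high (top ~1%) gates on anti-HA and streptavidin fluorescence. Each clone's polyreactivity label reflects its gate of origin.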

Sequence	polyreactivity (PSR sort gate)
QVQLVESVGGLVQAGGSLRLSCAASGSTFALNAMGWYRQAPGKERELVAAISYSGGSTYYADSVKGRFTISRDNAKNTVYLQINSLKPDDTAVYYCNAEVYFSGWVLYYYWGQGTQVTVSS	high polyreactivity
QVQLVESVGGLVQAGGSLRLSCAASGSTFGHNAMGWYRQAPGKERELVAVITSGGSTYYADSVKGRFTISRDNAKNTVYLQMNSLKPEDTAVYYCAKRYWSRGSKSSPYAYDYWGQGTQVTVSS	high polyreactivity
QVQLVESVGGLVQAGGSLRLSCAASGSTFLRYAMGWYRQAPGKERELVAAITASGGSTYYADSVKGRFTISRDNAKKSVYLQMNSLKPEDTAVYYCAADGRYIGKNSHDLWIYGYYYWGQGTQVTVSS	low polyreactivity
QVQLVESVGGLVQAGGSLRLSCAASGSTFSSYAMGWYRTAPGKERELVAALTASGGSTYYADSVKGRFTISRDNAKNTVYLQMNSLKPEDTAVYYCAAADVIFWLYYYWVQGTQVTVSS	low polyreactivity
QVQLVESVGGLVQAGGSLRLSCAASGSTFVIYAMGWYRQAHGKERELVAAISGRTGSTYYADSVKGRFTISRDNAKNTVYLQMNSLKPEDTAVYYCAAYKRSGLKYGHWGQGTQVTVSS	high polyreactivity
QVQLVESVGGLVQAGGSLRLSCAASGSTFVRYTMGWYRQAPGKERALVAAISWNGGRTYYADSVKGRFTISRDNTKNTVYLQMNSLKPEDTAVYYCNAVRLVYTGNSDYGYWGQGTQVTVSS	high polyreactivity
QVQLVESVGGLVQAGGSLRLSCAASGSTFWFYTMGWYRQAPGKERELVATITSGGSTNYADSVKGRFTISRDNAKNTVYLQMNSLKPEDTAVYYCAASSVLTNHDYWGQGTQVTVSS	low polyreactivity
QVQLVESVGGLVQAGGSLRLSCAASGSTFYHYAMGWYRQAPGKVRELVASISHSGGRTFYADSVKGRFTISRDNAMNTVYLQMNSLKPEDTAVYYCAADWRTRYDYWGQGTQVTVSS	low polyreactivity
QVQLVESVGGLVQAGGSLRLSCAASGSTFYPNAMGLYRQAPGKESELVAAITSGGSTYYADSVKGRFTISRDNAKNTVYLQMNTLKPEDTAVYYCAAQRRYHLDTTIGPGNYYYWGQGTQVTVSS	low polyreactivity
QVQLVESVGGLVQAGGSLRLSCAASGSTIDGYAMGWYRQAPGKEREFVAAISFSSASTYYADSVKGRFTISRDNAKNTVYLQMNSLKPEDTAVYYCNADFFDSGGSIEYDSWGQGTQVTVSS	low polyreactivity
QVQLVESVGGLVQAGGSLRLSCAASGTFSPYAMGWYRQAPGKERELVAVITSNTGRTYADSVKGRFTISRDNAKNSVYLQMNSLKPEDTAVYYCAARSTYRHWYRTGSRFDYWGQGTQVTVSS	low polyreactivity
QVQLVESVGGLVQAGGSLRLSCAATRSIFKIMRWYRQAPGKERELVAAISSSVGNTYYADSVKGRFTISRDNAKNTVYLQMNSLKPEDTAVYYCAAQSKYYQYYSWGQGTQVTVSS	high polyreactivity
QVQLVESVGGLVQAGGSLRLSCASSGNIFGAYAMGWYRQAPGKERELVAAIDSGSTNYADSVKGRFTISRDNAKNTVSLQMNSLKPEDTAVYYCNTKDQDVKVHHTSNTDDYWGQGTQVTVSS	low polyreactivity
QVQLVESVGGLVQAGGSLRLSCDASGSTFTSYTMGWYRPAPGKERELVAAISRSDGDRTYYADSVKGRFTISRDNAKNTVYLQMNSLKPEDTAVYYCAAEVTPRIVRYYYWGQGTQVTVSS	high polyreactivity
QVQLVESVGGLVQAGGSLRLSCPASGITFEQYAMGWYRQAPGKEREWVAAISSNGGITFYADSVKGRFTISRDNAKNTVYLQMNSLKPEDTAVYYCAARLCVTYPYIAYDYWGQGTQVTVSS	high polyreactivity
QVQLVESVGGLVQAGGSLRLSCPASGSIFGPYAMGWYRQAPGKERELVAAMTIGGDNTYYADSVKGRFTISRDNAKNTVYLQMNSLKPEDTAVYYCAAKYYGGKPHYYEYYYWGQGTQVTVSS	low polyreactivity
QVQLVESVGGLVQAGGSLRLSFAASGRTFVWYVMGWYSQAPVKERELVAAISLRGGTTYYADSVKGRFTISRDNAKNTVYLQMNSLKPEDTAVYYCAIAGIRHVTSKFKGYHFGYWGQGTQVTVSS	low polyreactivity
QVQLVESVGGLVQAGGSLRLSSAASGRIFSYKVMGWYRQAPGKESELVAAITSNDGSTYYADSVKGRFTISRDNAKNTVYLQMNSLKPVDTADYYCNADYGPVSLNEPFRDDYWGQGTQVTVSS	low polyreactivity
QVQLVESVGGLVQAGGSLRLSSAASGRILGYYAMGWYRQAPGKERELVAAISRACSTNYADSVKGRFTISRDNAKNTVYLQMNSLKPEDTAVYYCAARPYRRGYNYWGQGSQVTVSS	high polyreactivity
QVQLVESVGGLVQAGGSLRLTCAASGSIFYVYAMGWYRQAPGKERELVANIRDGGITYADSVKGRFTISRDNAKNTVYLQMNSLKPEDTAVYYCARDDTSPGYGDQSSNAAYYYRGQGTQVTVSS	low polyreactivity

Sequence	polyreactivity (PSR sort gate)
QVQLVESVGGLVQAGGSLRLTCAASGSTFWLNDMGWYRQATGKERELVAAISFSGASTYYADSVKGRFTISRDNAKNTVYLQMNILKPEDTAVYYCNAGWGRAEFLSEAVFDSRMYYWGQGTQVTVSS	low polyreactivity
QVQLVESVGGLVQEGGSLRLSSAATGYTFDVYAMGWSRQAPGKERELVAAISTRGTRTYYADSEKGRFTISRDNAKNTVYLQMNSLKPEDTAVYYCAAYVYDGETESRFDYWGQGTQVTVSS	high polyreactivity
QVQLVESVGVLVQAGGSLRLSCAASGLIIDGYAMGWYRQAPGKERELVATITVSGTSTYYADSVKGRFTISRDNEKNTVYLQMNSLIPEDTAVYYCATDRNYGYYFVEYDHDYWGQGTQVTVSS	low polyreactivity
QVQLVESVRGVVQAGGSLRLSCASSVFTFRWYAMGWFRQAPGKESELVADITRHGGSTYYADSVKGRFTISRDNAKNTVYLQMNSLKPEDTAVYYCAADLSWYDWEDDYWGQGTQVTVSS	low polyreactivity
QVQLVESVRRLVQAGGSLRLSCAASGSIYYPYAMGWYRQAPGKEMELVAAITGHGGSTYYADSVKGRFTISRDNAKNTVYLQMNSLNPEDTAVYYCATGGYQPVLHRGYYRFNYWGQGTQVTVSS	low polyreactivity
QVQLVESVVGLDQAGGSHRLSCAASGSIFATYAMGWYRHAPGKERELVAAITTRGGSTYYADSVKGRFTISRDNAKNTVYLLMYSLKPEDTAVYFCNALRWWSYGLNYCGQGTQVTVSS	high polyreactivity
QVQLVESVVGLDQAGGSLSLSCAASAIILYYYSMGWYRQAPGKEREVVAAISSGGNTYYADSVKGRFTISRDNAKNTVYFQMNSLKPEDTAVYYCAAGNVIGGEYDYWGLGTQVTVSS	low polyreactivity
QVQLVESVVGLVQAGCSLRLSCDASGFIFYYYTMGWYRQATGKERELVAAISRSGGRTYYADSVKGLFTISRDYAKNTVYLQMNSMKPDDTAVYYCAADTPYQTPPQQYVEYDYWGQCTQVTVSS	high polyreactivity
QVQLVESVVGLVQAGGSLRLSCAASGRTFRVNAMGWYRQAPGKERELVAAITWSGGTTYYADSVKGRFTISRDNAKNTVYLQMNSLKPEDTAVYYCAADRFWYGSWYDYWGHGTQVTVSS	high polyreactivity
QVQLVESVVGLVQAGGSLRVSCAAYGRTFWYYPMGWYRQAPGKERELVAGITFTGGRTYYADSVKGRFTISRDNAKHTVYLQMNSLKPEDTAVYYCAAAGLVVGRKDRDGYWGLGTQVTVSS	low polyreactivity
QVQLVESWAGLVQAGGSLRLSCAASGSTFSGYTMGWYRQAPGKEREFVAAISSRGGSTYYADSVKGRFTISRDNAKNTVYLHMNSLKPEDTAVYYCAAKVWARVDGRQFRMEYWGQGTQVSVSS	high polyreactivity
QVQLVESWGGLVQAAGSLRLSCAASGFIFRYNTMGSSRQAPAKERESVAAFSVSGARTYYADSVKGRFTISRDNAKNTVYLLMNSLKTEDTAVYYCNRRYPFYSRYNNDYWGQGTQVTVSS	high polyreactivity
QVQLVESWGGLVQAGASLRLSSAASGSIFGSYAMGSYRQAPGKERQLVAAITGIGGSTYYADSVKGRFTITRDNAKNTVYLQLNSLKPEDTAVYYCATRVRYRAPVVRGNYWGQGTQVTVSS	high polyreactivity
QVQLVESWGGLVQAGCSLRISCAASGSTLYSYAMGWNIQAPGKERELVAAINSGSNTYYADSVKGRFTISRDNAKNTVYLQMNSLKPEDTAVYYCAAKGIIYTGYDGARRAYGYWGQGTQVTVSS	high polyreactivity
QVQLVESWGGLVQAGGRLRLSCAASGRTFPGYAMGWYRPAPRKERELVAGISYRGGSTYYADSVKGRFTISRDNAKYTDYLQMNSLNPEDTAVYYCARDYSRHKGDYWGQGTQVTVSS	low polyreactivity
QVQLVESWGGLVQAGGSHRLSCDASGRIFTRNAMGWYRQAHGKERELVAAISYDCGSTYYADSVKVRFTISRDNAKNTVYLQMNSLKPEDTAVYYCATDLYLHGYEYWGQGTQVTVSS	high polyreactivity
QVQLVESWGGLVQAGGSLRLSCAASGFIFDNNALGWYRQAPGKERELVADISRSGGSTYADSVKGRFTISRDNAKNTVYFQMNSLKAEDTAVYYCAKDFQGRRPPKEPSAFYYWGQGTQVTVSS	low polyreactivity
QVQLVESWGGLVQAGGSLRLSCAASGFTFRYYAMGWYRQAPGKERELVAAITGSGTRTYYADSVKGRFTISRDNAKNTVYLQMNSLKPEDTAVYYCNAPRQPRWFDYWGQGTQVTVSS	high polyreactivity
QVQLVESWGGLVQAGGSLRLSCAASGFTFTRNAMGWYRQAPGKERELVAAISKSGGRTYYADSVKGRFTISRDNAKYNVYLQMNSLKPEDTAVYYCAVVPRPFGLGSDYDYWGQGTQVTVSS	high polyreactivity
QVQLVESWGGLVQAGGSLRLSCAASGIIFQNYDMGWYRQARGKERELVAAITGSGGSTYYADSVKGRFTISRDNAKNTVYLQMNSLKPEDTAVYYCNAVWEYYGKSDYWGQGTQVTVSS	low polyreactivity
